From PMC12000561

Test system: MUTYH WT (MBP fusion) (Homo sapiens)
Assay: EMSA
Settings: EMSA: DNA mix 40 mM Tris pH 7.6, 2 mM EDTA, 200 mM NaCl (printed '200 M'), 20% glycerol, 0.2 mg/ml BSA, 2 mM DTT, 20 pM duplex, mixed 1:1 with enzyme in 20 mM …

Row | Substance | Kd (table unit header missing, 2'-fluoro-2'-deoxyadenosine opposite 8-oxoguanine) [pM] | Kd (upper limit estimate, THF (abasic analog) opposite 8-oxoguanine) [pM]
1 | Duplex 2 fA:OG (substrate analog), 30 bp | 32 | –
2 | Duplex 2 THF:OG (product analog), 30 bp | – | < 10
